Molecular target: T1, SALT TOLERANCE HOMOLOG2 (STH2) (Arabidopsis thaliana, UniProt Q9LQZ7 1-331, limits assumed)
T1 construct: also called G1482
T1 sequence: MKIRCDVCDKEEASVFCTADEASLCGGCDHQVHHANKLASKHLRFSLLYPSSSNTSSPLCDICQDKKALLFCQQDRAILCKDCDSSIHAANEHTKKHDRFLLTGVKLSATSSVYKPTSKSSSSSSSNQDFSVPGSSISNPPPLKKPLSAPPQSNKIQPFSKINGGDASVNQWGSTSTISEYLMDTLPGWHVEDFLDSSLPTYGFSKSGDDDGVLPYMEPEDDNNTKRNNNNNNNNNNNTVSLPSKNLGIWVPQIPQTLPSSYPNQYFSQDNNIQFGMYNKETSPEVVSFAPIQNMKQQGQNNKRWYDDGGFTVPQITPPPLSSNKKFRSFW
Test: in vitro and protoplast based studies (methods not described)

B1: G1988 (other)
chain: MVSFCELCGAEADLHCAADSAFLCRSCDAKFHASNFLFARHFRRVICPNCKSLTQNFVSGPLLPWPPRTTCCSESSSSSCCSSLDCVSSSELSSTTRDVNRARGRENRVNAKAVAVTVADGIFVNWCGKLGLNRDLTNAVVSYASLALAVETRPRATKRVFLAAAFWFGVKNTTTWQNLKKVEDVTGVSAGMIRAVESKLARAMTQQLRRWRVDSEEGWAENDNV
notes: also called B-box zinc finger transcription factor G1988
Q: Does B1 bind?
A: binds

Source: US20120210456A1 (MENDEL BIOTECHNOLOGY, published 2012)
